Experimental data reported in article PMC7367873, “Dissecting the sequence determinants for dephosphorylation by the catalytic subunits of phosphatases PP1 and PP2A” (Nature Communications, 2020).
One block for each molecule: values may come before it.

Columns and labels:
[1] = tested on: GFP-14-3-3β and its binding proteins; assay: GFP-14-3-3β co-IP with LC-MS/MS label-free quantification, untreated versus PP1c-treated; parameters: species or system human; details: PP1 vs untreated; LFQ intensities; 3 replicates each
GFP-14-3-3β = GFP-14-3-3β co-IP with LC-MS/MS, untreated GFP-14-3-3β versus GFP control (14-3-3 interactome); type: binding, human; details: untreated vs GFP; LFQ intensities; 3 replicates each

Difference (log2), PP1 vs untreated [1]: 0.5874 log2
B2: CPM (protein, UniProt P14384 18-423, looked up)
Carboxypeptidase M: LDFNYHRQEGMEAFLKTVAQNYSSVTHLHSIGKSVKGRNLWVLVVGRFPKEHRIGIPEFKYVANMHGDETVGRELLLHLIDYLVTSDGKDPEITNLINSTRIHIMPSMNPDGFEAVKKPDCYYSIGRENYNQYDLNRNFPDAFEYNNVSRQPETVAVMKWLKTETFVLSANLHGGALVASYPFDNGVQATGALYSRSLTPDDDVFQYLAHTYASRNPNMKKGDECKNKMNFPNGVTNGYSWYPLQGGMQDYNYIWAQCFEITLELSCCKYPREEKLPSFWNNNKASLIEYIKQVHLGVKGQVFDQNGNPLPNVIVEVQDRKHICPYRTNKYGEYYLLLLPGSYIINVTVPGHDPHITKVIIPEKSQNFSALKKDILLPFQGQLDSIPVSNPSCPMIPLYRNLPDHS
Difference (log2), untreated vs GFP (GFP-14-3-3β): -1.988 log2

Difference (log2), PP1 vs untreated [1]: 0.5906 log2
B3: ATXN2 (protein, UniProt Q99700 1-1313, looked up)
Ataxin-2: MRSAAAAPRSPAVATESRRFAAARWPGWRSLQRPARRSGRGGGGAAPGPYPSAAPPPPGPGPPPSRQSSPPSASDCFGSNGNGGGAFRPGSRRLLGLGGPPRPFVVLLLPLASPGAPPAAPTRASPLGARASPPRSGVSLARPAPGCPRPACEPVYGPLTMSLKPQQQQQQQQQQQQQQQQQQQQQQQPPPAAANVRKPGGSGLLASPAAAPSPSSSSVSSSSATAPSSVVAATSGGGRPGLGRGRNSNKGLPQSTISFDGIYANMRMVHILTSVVGSKCEVQVKNGGIYEGVFKTYSPKCDLVLDAAHEKSTESSSGPKREEIMESILFKCSDFVVVQFKDMDSSYAKRDAFTDSAISAKVNGEHKEKDLEPWDAGELTANEELEALENDVSNGWDPNDMFRYNEENYGVVSTYDSSLSSYTVPLERDNSEEFLKREARANQLAEEIESSAQYKARVALENDDRSEEEKYTAVQRNSSEREGHSINTRENKYIPPGQRNREVISWGSGRQNSPRMGQPGSGSMPSRSTSHTSDFNPNSGSDQRVVNGGVPWPSPCPSPSSRPPSRYQSGPNSLPPRAATPTRPPSRPPSRPSRPPSHPSAHGSPAPVSTMPKRMSSEGPPRMSPKAQRHPRNHRVSAGRGSISSGLEFVSHNPPSEAATPPVARTSPSGGTWSSVVSGVPRLSPKTHRPRSPRQNSIGNTPSGPVLASPQAGIIPTEAVAMPIPAASPTPASPASNRAVTPSSEAKDSRLQDQRQNSPAGNKENIKPNETSPSFSKAENKGISPVVSEHRKQIDDLKKFKNDFRLQPSSTSESMDQLLNKNREGEKSRDLIKDKIEPSAKDSFIENSSSNCTSGSSKPNSPSISPSILSNTEHKRGPEVTSQGVQTSSPACKQEKDDKEEKKDAAEQVRKSTLNPNAKEFNPRSFSQPKPSTTPTSPRPQAQPSPSMVGHQQPTPVYTQPVCFAPNMMYPVPVSPGVQPLYPIPMTPMPVNQAKTYRAVPNMPQQRQDQHHQSAMMHPASAAGPPIAATPPAYSTQYVAYSPQQFPNQPLVQHVPHYQSQHPHVYSPVIQGNARMMAPPTHAQPGLVSSSATQYGAHEQTHAMYACPKLPYNKETSPSFYFAISTGSLAQQYAHPNATLHPHTPHPQPSATPTGQQQSQHGGSHPAPSPVQHHQHQAAQALHLASPQQQSAIYHAGLAPTPPSMTPASNTQSPQNSFPAAQQTVFTIHPSHVQPAYTNPPHMAHVPQAHVQSGMVPSHPTAHAPMMLMTTQPPGGPQAALAQSALQPIPVSTTAHFPYMTHPSVQAHHQQQL
Difference (log2), untreated vs GFP (GFP-14-3-3β): 1.35 log2

Continued, molecule first:

B1: RASAL2 (protein, UniProt Q9UJF2 1-1139, looked up)
Ras GTPase-activating protein …: MQTPEVPAERSPRRRSISGTSTSEKPNSMDTANTSPFKVPGFFSKRLKGSIKRTKSQSKLDRNTSFRLPSLRSTDDRSRGLPKLKESRSHESLLSPCSTVECLDLGRGEPVSVKPLHSSILGQDFCFEVTYLSGSKCFSCNSASERDKWMENLRRTVQPNKDNCRRAENVLRLWIIEAKDLAPKKKYFCELCLDDTLFARTTSKTKADNIFWGEHFEFFSLPPLHSITVHIYKDVEKKKKKDKNNYVGLVNIPTASVTGRQFVEKWYPVSTPTPNKGKTGGPSIRIKSRFQTITILPMEQYKEFAEFVTSNYTMLCSVLEPVISVRNKEELACALVHILQSTGRAKDFLTDLVMSEVDRCGEHDVLIFRENTIATKSIEEYLKLVGQQYLHDALGEFIKALYESDENCEVDPSKCSSSELIDHQSNLKMCCELAFCKIINSYCVFPRELKEVFASWKQQCLNRGKQDISERLISASLFLRFLCPAIMSPSLFNLMQEYPDDRTSRTLTLIAKVIQNLANFAKFGNKEEYMAFMNDFLEHEWGGMKRFLLEISNPDTISNTPGFDGYIDLGRELSVLHSLLWEVVSQLDKGENSFLQATVAKLGPLPRVLADITKSLTNPTPIQQQLRRFTEHNSSPNVSGSLSSGLQKIFEDPTDSDLHKLKSPSQDNTDSYFRGKTLLLVQQASSQSMTYSEKDERESSLPNGRSVSLMDLQDTHAAQVEHASVMLDVPIRLTGSQLSITQVASIKQLRETQSTPQSAPQVRRPLHPALNQPGGLQPLSFQNPVYHLNNPIPAMPKASIDSSLENLSTASSRSQSNSEDFKLSGPSNSSMEDFTKRSTQSEDFSRRHTVPDRHIPLALPRQNSTGQAQIRKVDQGGLGARAKAPPSLPHSASLRSTGSMSVVSAALVAEPVQNGSRSRQQSSSSRESPVPKVRAIQRQQTQQVQSPVDSATMSPVERTAAWVLNNGQYEEDVEETEQNLDEAKHAEKYEQEITKLKERLRVSSRRLEEYERRLLVQEQQMQKLLLEYKARLEDSEERLRRQQEEKDSQMKSIISRLMAVEEELKKDHAEMQAVIDAKQKIIDAQEKRIVSLDSANTRLMSALTQVKERYSMQVRNGISPTNPTKLSITENGEFKNSSC
Difference (log2), PP1 vs untreated [1]: 0.5963 log2
Difference (log2), untreated vs GFP (GFP-14-3-3β): 1.812 log2

B4: CPT1A (protein, UniProt P50416 2-773, looked up)
Carnitine …: AEAHQAVAFQFTVTPDGIDLRLSHEALRQIYLSGLHSWKKKFIRFKNGIITGVYPASPSSWLIVVVGVMTTMYAKIDPSLGIIAKINRTLETANCMSSQTKNVVSGVLFGTGLWVALIVTMRYSLKVLLSYHGWMFTEHGKMSRATKIWMGMVKIFSGRKPMLYSFQTSLPRLPVPAVKDTVNRYLQSVRPLMKEEDFKRMTALAQDFAVGLGPRLQWYLKLKSWWATNYVSDWWEEYIYLRGRGPLMVNSNYYAMDLLYILPTHIQAARAGNAIHAILLYRRKLDREEIKPIRLLGSTIPLCSAQWERMFNTSRIPGEETDTIQHMRDSKHIVVYHRGRYFKVWLYHDGRLLKPREMEQQMQRILDNTSEPQPGEARLAALTAGDRVPWARCRQAYFGRGKNKQSLDAVEKAAFFVTLDETEEGYRSEDPDTSMDSYAKSLLHGRCYDRWFDKSFTFVVFKNGKMGLNAEHSWADAPIVAHLWEYVMSIDSLQLGYAEDGHCKGDINPNIPYPTRLQWDIPGECQEVIETSLNTANLLANDVDFHSFPFVAFGKGIIKKCRTSPDAFVQLALQLAHYKDMGKFCLTYEASMTRLFREGRTETVRSCTTESCDFVRAMVDPAQTVEQRLKLFKLASEKHQHMYRLAMTGSGIDRHLFCLYVVSKYLAVESPFLKEVLSEPWRLSTSQTPQQQVELFDLENNPEYVSSGGGFGPVADDGYGVSYILVGENLINFHISSKFSCPETDSHRFGRHLKEAMTDIITLFGLSSNSKK
Difference (log2), PP1 vs untreated [1]: 0.596 log2
Difference (log2), untreated vs GFP (GFP-14-3-3β): 1.035 log2
